In the Immune Epitope Database (IEDB) one finds Kd data, which are given here for 5 sequences.

By Kd is commonly meant the constant that tells how readily two partners part at equilibrium.

The target in assay [1] is HLA-B*15:02. Nature of the assay: IEDB peptide-MHC binding, purified MHC/direct/fluorescence; filed as Kd, often an IC50 or EC50 that approximates it; ≥ and ≤ were set here for values at or beyond the usual limits of such assays. Particulars: source organism: Cryptosporidium parvum Iowa II.
Assay [2] deals with HLA-B*46:01. Described as above. Particulars: source organism: Neogale vison.
The target in assay [3] is HLA-A*02:01. Nature of the assay: IEDB peptide-MHC binding, purified MHC/competitive/radioactivity; filed as Kd, often an IC50 or EC50 that approximates it; ≥ and ≤ were set here for values at or beyond the usual limits of such assays. Particulars: source organism: Homo sapiens.
Assay [4] addresses HLA-A*02:07. Described as above. The following applies: source organism: Homo sapiens.
In assay [5] the target is HLA-A*29:02. Described as above. The following applies: source organism: Homo sapiens.
The target of assay [6] is HLA-B*57:01. The assay is described as above. Particulars: source organism: Homo sapiens.
Assay [7] has as its target HLA-B*58:01. The description is as above. Particulars: source organism: Homo sapiens.
For assay [8], the target named is HLA-A*01:01. Nature of the assay: IEDB peptide-MHC binding, purified MHC/direct/fluorescence; filed as Kd, often an IC50 or EC50 that approximates it; ≥ and ≤ were set here for values at or beyond the usual limits of such assays.
For assay [9], the target named is HLA-A*02:01. The description is as above.
The target in assay [10] is HLA-A*03:01. The description is as above.
Assay [11] has as its target HLA-A*11:01. The assay is described as above.
For assay [12], the target named is HLA-A*24:03. The description is as above. The following applies: source organism: Giardia lamblia ATCC 50803.
Assay [13] addresses HLA-A*26:01. The assay is described as above.
In assay [14] the target is HLA-A*30:01. The description is as above. Particulars: source organism: Giardia lamblia ATCC 50803.
Assay [15] has as its target HLA-A*31:01. The description is as above.
Assay [16] concerns the target HLA-A*69:01. Described as above.
Assay [17] addresses HLA-B*07:02. The assay is described as above.
Assay [18] addresses HLA-B*08:01. The assay is described as above. The following applies: source organism: Giardia lamblia ATCC 50803.
The target of assay [19] is HLA-B*15:01. Described as above.
For assay [20], the target named is HLA-B*27:05. The description is as above.
Assay [21] addresses HLA-B*40:01. Described as above. Particulars: source organism: Giardia lamblia ATCC 50803.
For assay [22], the target named is HLA-B*44:02. Described as above. Particulars: source organism: Giardia lamblia ATCC 50803.
The target in assay [23] is HLA-B*58:01. Described as above.
Assay [24] concerns the target HLA-A*03:01. The assay can be described thus: IEDB peptide-MHC binding, purified MHC/competitive/fluorescence; filed as Kd, often an IC50 or EC50 that approximates it; ≥ and ≤ were set here for values at or beyond the usual limits of such assays. Particulars: source organism: Human immunodeficiency virus 1.
Assay [25] addresses HLA-A*11:01. The assay is described as above. Particulars: source organism: Human immunodeficiency virus 1.
Assay [26] deals with HLA-A*26:02. The assay is described as above.
Assay [27] addresses HLA-A*26:03. The description is as above. Particulars: source organism: Human immunodeficiency virus 1.
The target in assay [28] is HLA-A*30:01. The assay is described as above. Particulars: source organism: Human immunodeficiency virus 1.
Assay [29] addresses HLA-A*31:01. The description is as above. The following applies: source organism: Human immunodeficiency virus 1.
For assay [30], the target named is HLA-B*08:02. Described as above. The following applies: source organism: Human immunodeficiency virus 1.
Assay [31] concerns the target HLA-B*08:03. The assay is described as above. The following applies: source organism: Human immunodeficiency virus 1.
The target of assay [32] is HLA-A*26:03. The assay can be described thus: IEDB peptide-MHC binding, purified MHC/direct/fluorescence; filed as Kd, often an IC50 or EC50 that approximates it; ≥ and ≤ were set here for values at or beyond the usual limits of such assays. The following applies: source organism: Cryptosporidium parvum Iowa II.
The target of assay [33] is HLA-A*68:02. The description is as above. The following applies: source organism: Cryptosporidium parvum.
Assay [34] has as its target HLA-B*08:02. The description is as above. The following applies: source organism: Cryptosporidium parvum Iowa II.
For assay [35], the target named is HLA-B*08:03. Described as above. Particulars: source organism: Cryptosporidium parvum Iowa II.
The target in assay [36] is HLA-B*15:09. The description is as above. Particulars: source organism: Cryptosporidium parvum Iowa II.
Assay [37] deals with HLA-B*18:01. The description is as above. The following applies: source organism: Cryptosporidium parvum.
In assay [38] the target is HLA-B*27:02. Described as above. Particulars: source organism: Cryptosporidium parvum Iowa II.
Assay [39] concerns the target HLA-B*48:01. Described as above. The following applies: source organism: Cryptosporidium parvum.
Assay [40] addresses HLA-B*57:01. Described as above. Particulars: source organism: Cryptosporidium parvum.
The target of assay [41] is HLA-B*73:01. The description is as above. The following applies: source organism: Cryptosporidium parvum.
The target in assay [42] is HLA-B*15:17. Nature of the assay: IEDB peptide-MHC binding, purified MHC/competitive/fluorescence; filed as Kd, often an IC50 or EC50 that approximates it; ≥ and ≤ were set here for values at or beyond the usual limits of such assays. The following applies: source organism: Cryptosporidium parvum Iowa II.
The target in assay [43] is HLA-B*39:01. The description is as above. Particulars: source organism: Cryptosporidium parvum Iowa II.
The target of assay [44] is HLA-A*02:01. Nature of the assay: IEDB peptide-MHC binding, cellular MHC/competitive/fluorescence; filed as Kd, often an IC50 or EC50 that approximates it; ≥ and ≤ were set here for values at or beyond the usual limits of such assays. Particulars: source organism: Homo sapiens.
The mark [45] stands for this setting: source organism: Giardia lamblia ATCC 50803.
Setting [46] is: source organism: Cryptosporidium parvum.
Where [47] appears, read: source organism: Cryptosporidium parvum Iowa II.

Take KMKEIAEAY: the Kd in assay [1] is 0.184 µM; in [2] it was 0.446 µM; in assay [3], no less than 78.1 µM; in assay [4], no less than 53.4 µM; in assay [5], 0.0889 µM; in assay [6], 2.87 µM. Moreover, the Kd in [7] stood at 2.03 µM.
As to KTPWDRFCK, the Kd was no less than 20 µM in assay [8] (setting [45]); no less than 20 µM in assay [9] (setting [45]); 3.63 µM in assay [10] (setting [45]); 0.0641 µM in [11] (setting [45]); 6.93 µM in assay [12]; no less than 20 µM in assay [13] (setting [45]). The equilibrium dissociation constant (Kd) in assay [14] is 0.0218 µM; in assay [15] (setting [45]), 0.0957 µM; in assay [16] (setting [45]), no less than 20 µM; in [17] (setting [45]) it was no less than 20 µM; in assay [18], no less than 20 µM; in [19] (setting [45]), no less than 20 µM. Besides, the Kd in [20] (setting [45]), in [21], in assay [22] and in [23] (setting [45]) was no less than 20 µM throughout.
With IATLYCVHQK, the Kd was no less than 20 µM in assay [24]; 1.71 µM in assay [25]; no less than 20 µM in assay [26] (source organism: Human immunodeficiency virus 1); no less than 20 µM in assay [27]; no less than 5 µM in assay [28]; no less than 20 µM in assay [29]. The Kd in [30] and in assay [31] was no less than 20 µM throughout.
As for RKWGLDFCY, the Kd in assay [8] (setting [46]), in [9] (setting [46]), in assay [10] (setting [46]), in assay [11] (setting [46]), in [13] (setting [47]) and in assay [32] was no less than 20 µM throughout. The Kd in assay [15] (setting [46]) is no less than 20 µM; in [33], no less than 20 µM; in [16] (setting [46]), no less than 20 µM; in [17] (setting [46]), 9 µM; in assay [34], no less than 20 µM; in assay [35], no less than 20 µM. Also, the Kd is 2.08 µM in assay [19] (setting [46]); no less than 20 µM in assay [36]; no less than 20 µM in assay [37]; 7 µM in assay [38]; 0.0555 µM in assay [20] (setting [46]); no less than 20 µM in assay [39]. Moreover, the dissociation constant Kd in assay [40], in [23] (setting [46]), in assay [41], in [26] (setting [47]), in [42] and in [43] was no less than 20 µM throughout.
In the case of KLVVVGAGGV, in assay [44], the Kd is no less than 156 µM.
